Reference: patent US20060073087A1, “Method and apparatus for the formation of particles” (priority 1994, published 2006)

Experiment: colorimetric beta-lactamase activity assay with Nitrocefin (method of O'Callaghan)
Type: biochemical
Details: particles formed from aqueous solution with ethanol and supercritical CO2; tested colorimetrically with Nitrocefin
Text: This illustrates the successful use of the method and apparatus of the invention in preparing particulate protein products in a controlled manner, even where the proteins are insoluble in, or incompatible with, organic solvents.

B1: R-TEM beta-lactamase (protein, UniProt P62593 24-286, looked up)
Beta-lactamase TEM: HPETLVKVKDAEDQLGARVGYIELDLNSGKILESFRPEERFPMMSTFKVLLCGAVLSRVDAGQEQLGRRIHYSQNDLVEYSPVTEKHLTDGMTVRELCSAAITMSDNTAANLLLTTIGGPKELTAFLHNMGDHVTRLDRWEPELNEAIPNDERDTTMPAAMATTLRKLLTGELLTLASRQQLIDWMEADKVAGPLLRSALPAGWFIADKSGAGERGSRGIIAALGPDGKPSRIVVIYTTGSQATMDERNRQIAEIGASLIKHW
notes: water-soluble protein R-TEM beta-lactamase, batch number 1TEM1L88, formed into particles by the method of the invention
enzymatic activity of the particulate product: retained substantial enzymatic activity
